Data on four variants can be found in FireProtDB (doi:10.1021/bi0512400).

B1: Alpha-lactalbumin, P00712 (parent)
chain: MMSFVSLLLVGILFHATQAEQLTKCEVFQKLKDLKDYGGVSLPEWVCTAFHTSGYDTQAIVQNNDSTEYGLFQINNKIWCKDDQNPHSRNICNISCDKFLDDDLTDDIVCAKKILDKVGINYWLAHKALCSEKLDQWLCEKL

The series covers variants of B1. The conditions noted are these: Capra hircus, pH 7.5, 25 °C, GdnHCl, CD, Tris 20 mM, Ca2+ 10 mM, structure 1HFY, whole UniProt chain shown.

Values joined by “and” are separate entries in the source; they are usually repeats but may differ in a detail not shown here. Equal values may be shown once.

Take W79F: the “ddG of mutation (higher = less stable)” value was 1.27 kcal/mol, the denaturant m value is 2.65 kcal/mol/M and the unfolding free energy was 8.97 kcal/mol. For the setting “transition: 3”, the denaturant m value was 1.51 kcal/mol/M and 1.14 kcal/mol/M; the unfolding free energy is 4.98 kcal/mol and 3.99 kcal/mol.
With W45F, the “ddG of mutation (higher = less stable)” value was 2.4 kcal/mol, the denaturant m value amounted to 2.81 kcal/mol/M and the unfolding free energy is 7.84 kcal/mol. Further, under “transition: 3”, the denaturant m value is 1.65 kcal/mol/M and 1.16 kcal/mol/M; the unfolding free energy is 4.18 kcal/mol and 3.66 kcal/mol.
Regarding W123F, the “ddG of mutation (higher = less stable)” value was found to be 2.27 kcal/mol, the denaturant m value is 2.8 kcal/mol/M and the unfolding free energy is 7.97 kcal/mol.
The matching figures for W137F: -0.16 kcal/mol, 3.06 kcal/mol/M and 10.4 kcal/mol.
